Where two headings read alike, the source gives them in different places.
Columns and labels:
[1] = molecular target: GST-STAT3 (16 kDa monovalent antigen, Creative BioMart #STAT3-1476H) (UniProt P40763)
[2] = molecular target: GST-STAT3 (16 kDa monovalent antigen, Creative BioMart #STAT3-1476H) (UniProt P40763); remark: listed apart in the source
[3] = molecular target: GST-STAT3 (16 kDa monovalent antigen, Creative BioMart #STAT3-1476H) (UniProt P40763); remark: listed apart in the source
[4] = molecular target: endogenous STAT3 in human cancer cell lysates (MDA-MB-231, PANC-1, DU145) (human, UniProt P40763 2-770)
endogenous STAT3 in human cancer cell lysates (MDA-MB-231, PANC-1, DU145), sequence (P40763 2-770 limits assumed): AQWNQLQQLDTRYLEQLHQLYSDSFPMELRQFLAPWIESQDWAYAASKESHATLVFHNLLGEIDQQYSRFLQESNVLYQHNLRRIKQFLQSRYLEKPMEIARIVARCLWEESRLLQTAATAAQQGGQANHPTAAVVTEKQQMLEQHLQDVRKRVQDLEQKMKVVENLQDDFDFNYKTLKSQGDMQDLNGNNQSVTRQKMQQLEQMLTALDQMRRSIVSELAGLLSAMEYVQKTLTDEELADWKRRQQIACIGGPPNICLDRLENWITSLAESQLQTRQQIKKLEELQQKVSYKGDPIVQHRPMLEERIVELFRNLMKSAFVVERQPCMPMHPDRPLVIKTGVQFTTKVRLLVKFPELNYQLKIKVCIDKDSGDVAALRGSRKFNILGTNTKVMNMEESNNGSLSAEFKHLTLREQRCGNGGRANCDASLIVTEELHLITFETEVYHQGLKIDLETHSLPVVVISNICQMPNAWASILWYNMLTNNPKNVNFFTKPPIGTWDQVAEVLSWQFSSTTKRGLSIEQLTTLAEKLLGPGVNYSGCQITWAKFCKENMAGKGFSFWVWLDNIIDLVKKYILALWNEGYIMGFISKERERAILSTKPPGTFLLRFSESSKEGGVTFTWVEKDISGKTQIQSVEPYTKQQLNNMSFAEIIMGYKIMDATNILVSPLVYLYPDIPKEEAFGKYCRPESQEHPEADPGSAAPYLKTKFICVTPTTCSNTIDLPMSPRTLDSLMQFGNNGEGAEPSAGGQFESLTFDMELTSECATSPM

Kd [1] [nM]	koff [1] [s⁻¹]	kon [1] [M⁻¹ s⁻¹]	Kd [2] [nM]	koff [2] [s⁻¹]	kon [2] [M⁻¹ s⁻¹]	Kd [3] [nM]	koff [3] [s⁻¹]	kon [3] [M⁻¹ s⁻¹]	binding result [4]	Molecule
67.5	0.000801	11900	4.32	0.000386	89300	29.2	0.00048	16500	–	anti-KRAS (negative control) (VHH)
–	–	–	–	–	–	–	–	–	binds	STAT3 VHH13 (SEQ ID NO:3) produced and isolated from mammalian cells (VHH) VHH: HVQLVESGGGSVQAGGSLRLSCAASGANGGRSCMGWFRQVPGKEREGVSGISTGGLITYYADSVKGRFTISQDNTKNTLYLQMNSLKPEDTAMYYCATSRFDCYRGSWFNRYMYNSWGQGTQVTVSS

— patent publication US20160115226A1 (SINGH MOLECULAR MEDICINE, published 2016)
